Molecular target: the molecule itself
Experiment: SEC-MALS

B1: Lcl C-terminal domain (Lcl-CTD), residues 252 to 401 (domain or fragment)
chain: MAHHHHHHVDDDDKMETGQVLAKSNDLDFNTMWVDPANSGIRRQLGDKALGGTVIYVNALGTHGLVVANSDQVNSNTWWDAQDSITNPAHFDNEGKLYSDWRLPTRFELNLIYMMRNELGNFLAGNYWSSIEKSSANSWVFNSKTGEIKDIAKSKTAAVRAVRAF
- stoichiometry N: 3

Source: paper doi:10.1101/2023.12.10.570962 (bioRxiv, 2023)
